Laboratory results from the supplement of paper PMC11908140.

B1: library; numbered along this chain (parent)
chain: MRKPRAAVGSGHRKQAASQEGRQKHAKNNSQAKPSACDGLARQPEEVVLQASVSSYHLFRDVAEVTAFRGSLLSWYDQEKRDLPWRRRAEDEMDLDRRAYAVWVSEVMLQQTQVATVINYYTGWMQKWPTLQDLASASLEEVNQLWAGLGYYSRGRRLQEGARKVVEELGGHMPRTAETLQQLLPGVGRYTAGAIASIAFGQATGVVDGNVARVLCRVRAIGADPSSTLVSQQLWGLAQQLVDPARPGDFNQAAMELGATVCTPQRPLCSQCPVESLCRARQRVEQEQLLASGSLSGSPDVEECAPNTGQCHLCLPPSEPWDQTLGVVNFPRKASRKPPREESSATCVLEQPGALGAQILLVQRPNSGLLAGLWEFPSVTWEPSEQLQRKALLQELQRWAGPLPATHLRHLGEVVHTFSHIKLTYQVYGLALEGQTPVTTVPPGARWLTQEEFHTAAVSTAMKKVFRVYQGQQPGTCMGSKRSQVSSPCSRKKPRMGQQVLDNFFRSHISTDAHSLNSAAQ

Variants of: B1
Assay: 8OG:A repair function score (normalized; synonymous = 0, nonsense = -1) (normalized log-likelihood score); higher = more repair activity (WT-like)
Settings: with 8OG:A DNA repair reporter (GFP) in HEK-293 MUTYH KO cells
Method in brief: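 GFP+ (repair) and GFP− bins of viable mCherry+ cells were collected at 72 h from MUTYH knockout HEK-293 cells bearing lentiviral MUTYH cDNA NNN codon-scan libraries in 10 pg/ml doxycycline, co-transfected with an 8OG:A GFP repair reporter and mCherry. Tile amplicons were sequenced, and per-tile Rosace fitness scores were normalized to a repair function score anchored on synonymous and nonsense distributions. Synonymous medians were set to 0 and nonsense to -1, with variants under 300 counts per million at the start removed.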
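Also: cells sorted at 72 h after reporter transfection.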

8OG:A repair function score of substitutions, site by site:
S294: C -0.00327 | Y -0.0109 | H -0.0171 | M -0.0115 | Q -0.0283 | K -0.0502 | R -0.00624 | L -0.0244 | P -0.0152 | N 0.0126 | T 0.00194 | G -0.00188 | D -0.0514 | W -0.0117 | A -0.012 | V -0.0111 | E 0.00208 | F -0.0489 | I 0.00404
G297: A -0.00898 | E -0.0194 | D -0.0132 | P -0.0639 | Y -0.0582 | R -0.0667 | T 0.0201 | H 0.00021 | I -0.0605 | K 0.0192 | M -0.00568 | L -0.000773 | V 0.0126 | W -0.206 | N -0.00835 | C 0.00942 | Q -0.0223 | F 0.016 | S -0.00596
L295: S -0.0013 | W -0.0272 | A -0.00496 | K -0.0388 | H -0.0248 | Y -0.0185 | T -0.00105 | D -0.0433 | M -0.0314 | C -0.0222 | R -0.0249 | P 0.0289 | F -0.0139 | I 0.00398 | V 0.0106 | Q -0.0618 | E -0.0096 | N -0.00265
S296: W 0.0254 | A -0.0202 | T -0.0451 | Y 0.0195 | E -0.0247 | V 0.0116 | H -0.0357 | C -0.0117 | M -0.0125 | K -0.0357 | L -0.0062 | R 0.0309 | D 0.0216 | F -0.00655 | N -0.0281 | P -0.00535 | I -0.0485 | Q -0.00136 | G -0.0331
L289: S -0.0139 | C -0.0659 | Y -0.00792 | F -0.00169 | Q 0.015 | K -0.0314 | T 0.0028 | I 0.00652 | R -0.0177 | G -0.00218 | A 0.00592 | E -0.00394 | V -0.0422 | W -0.0271 | P -0.0119 | D -0.0394 | M -0.0277 | H 0.0106 | N -0.057
L290: Q -0.0401 | R 0.0252 | V -0.0591 | M -0.0856 | W -0.0672 | G -0.0171 | N 0.00556 | E -0.0564 | H -0.0116 | F -0.0363 | D -0.0753 | A -0.0163 | C -0.0194 | S -0.022 | T 0.0127 | K 0.0241 | I 0.0122 | Y -0.0918 | P -0.0572
E287: P -0.121 | D -0.0111 | H -0.047 | V -0.04 | I -0.038 | W -0.0668 | S 0.005 | G -0.0256 | N -0.0363 | K -0.0128 | Y -0.00218 | A -0.017 | R -0.0601 | C -0.037 | T -0.00299 | M 0.0384 | F -0.0154 | L -0.0229 | Q -0.114
R283: L -0.0781 | M -0.0516 | H -0.102 | T -0.308 | Q -0.0283 | V -0.0935 | G -0.364 | C -0.167 | F -0.16 | Y -0.0964 | I -0.0881 | K -0.0478 | N -0.173 | E -0.246 | D -0.662 | W -0.115 | A -0.145 | P -0.625 | S -0.203
G293: Q -0.00725 | Y -0.0734 | N -0.03 | H -0.05 | R -0.00692 | W 0.000227 | M -0.0432 | T -0.0505 | K -0.0447 | F -0.0692 | E -0.0308 | V -0.0545 | L -0.0631 | P -0.0254 | S -0.0376 | I -0.0531 | C -0.0307 | D -0.124 | A -0.0268
Q288: P -0.036 | D -0.0736 | Y -0.0255 | T 0.00195 | R -0.00978 | A 0.00699 | K -0.0373 | W -0.0268 | C -0.0156 | H 0.00465 | I -0.0801 | S -0.0113 | V -0.068 | L -0.0159 | E -0.0177 | M -0.03 | F -0.016 | N 0.0202 | G -0.0129
V284: G -0.236 | D -0.0734 | T 0.0102 | F -0.00936 | E -0.033 | S -0.0426 | Y -0.0139 | W -0.0406 | H -0.12 | L -0.0493 | C -0.0207 | P -0.32 | M -0.00894 | N -0.0944 | Q -0.0561 | I -0.0683 | A 0.00964 | K -0.0279 | R -0.149
R281: Y -0.0264 | S -0.126 | W -0.105 | T -0.16 | N -0.0901 | M -0.0676 | L -0.166 | P -0.443 | V -0.131 | Q -0.113
S292: I 0.000296 | V -0.0158 | L -0.0154 | F -0.0271 | T -0.0314 | W -0.0286 | C -0.0199 | E -0.0389 | Q -0.0703 | D -0.0297 | Y 0.00788 | K -0.0316 | N -0.0335 | M -0.0481 | P -0.0306 | R -0.0254 | A -0.0285 | G -0.00959 | H -0.00367
E285: Q -0.00364 | D -0.0239 | P -0.129 | N -0.0168 | R 0.00385 | L -0.000221 | G -0.0139 | A 0.00663 | F 0.000814 | S 0.0138 | I -0.0117 | Y -0.0542 | H -0.0454 | T -0.0287 | C -0.00692 | W 0.0108 | V 0.00347 | M -9.17e-05 | K -0.0741
Q282: A -0.0281 | G -0.0596 | V -0.0489 | D -0.125 | E -0.0248 | T -0.0623 | P -0.526 | R -0.0175 | F -0.021 | S -0.0408 | K 0.0141 | I -0.0327 | N -0.0575 | C -0.0445 | M -0.0222 | W -0.0465 | H -0.0165 | L -0.0273 | Y -0.0373
Q286: A -0.00891 | I -0.0426 | H -0.0639 | F -0.00865 | M -0.0133 | K -0.000545 | G -0.0661 | N 0.0116 | S -0.023 | T -0.00617 | D -0.0961 | Y -0.0193 | W -7.92e-05 | E -0.0273 | V -0.0346 | R 0.00446 | C -0.00905 | P -0.093 | L -0.0175
P299: C -0.0402 | A -0.0132
S298: I 0.0307 | Q -0.0174 | G 0.0202 | N -0.0213 | K -0.0342 | F -0.0178 | T 0.00821 | R -0.0386 | D -0.0341 | M -0.0331 | H 0.0283 | P 0.0228 | A -0.000852 | W -0.00249 | L 0.0173 | C -0.0366 | Y -0.0154 | V 0.00493 | E -0.0588
A291: P -0.0656 | M -0.0586 | C -0.0481 | E -0.125 | I -0.0181 | R -0.0282 | T -0.0451 | V -0.0187 | H -0.0755 | K 0.00353 | Q 0.00288 | F -0.0509 | L -0.0339 | G -0.0909 | S -0.000102 | Y 0.0195 | W -0.0221 | D -0.119 | N 0.0139
